Source: patent publication US20030049246A1

How the values were obtained:
[1] = target: SHH (mouse, endogenous in purified granule neuron precursor aggregates) (mouse) (UniProt Q62226); experiment: cell-based or functional assay
[2] = target: SHH (chick, endogenous in cerebellar cortical explants) (chick) (UniProt Q91035); experiment: cell-based or functional assay
SHH (chick, endogenous in cerebellar cortical explants) (chick), sequence (Q91035 27-200 limits assumed): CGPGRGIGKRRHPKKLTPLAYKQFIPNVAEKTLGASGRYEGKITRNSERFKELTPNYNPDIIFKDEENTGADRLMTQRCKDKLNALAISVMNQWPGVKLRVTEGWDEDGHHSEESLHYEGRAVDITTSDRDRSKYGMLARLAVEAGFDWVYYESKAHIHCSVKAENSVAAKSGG

SHH (mouse, endogenous in purified granule neuron precursor aggregates) (mouse), sequence (Q62226 25-198 limits assumed): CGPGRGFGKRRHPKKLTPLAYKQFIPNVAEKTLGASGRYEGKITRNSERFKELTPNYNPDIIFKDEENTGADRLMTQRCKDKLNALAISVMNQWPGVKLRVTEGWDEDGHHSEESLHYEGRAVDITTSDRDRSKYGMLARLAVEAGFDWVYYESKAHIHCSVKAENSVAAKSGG

fold decrease in proliferation of purified mouse granule neuron aggregates [1]: 3 to 4 fold
fold decrease in BrdU incorporation inside D10 chick cerebellar explants (96 h) [2]: 3 to 4 fold
Substance: blocking anti-SHH monoclonal antibody 5E1
